# ± gives the uncertainty stated by the source.
# Test: amyloid nucleation score (Sup35N fusion, yeast selection) (log enrichment); library NNK2; higher = more nucleation; inactive = no reads after selection
# Method in brief: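 The nucleation score is the DiMSum log enrichment of output over input reads, centred on the mode score of non-aggregating sequences. Only sequences with 100 or more input reads were scored, using Illumina sequencing of input and output plasmid inserts. Psi-negative yeast expressing Sup35N fused to peptides of 20 random codons were induced 24 hours with 100 μM copper sulfate and grown 7 days at 30°C on medium lacking adenine and uracil.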
row,Substance,amyloid nucleation score
1,GCDVDKVNGRRVVYPDTEGL,0.697 ± 0.81
2,GCGCATGREDTPGNIGWMV,0.507 ± 0.25
3,GCIIFGYLG,1.57 ± 0.16
4,GCISVNCHSLLRTHAFRG,1.28 ± 0.1
5,GCKSGDQDLALRNGCRKQRS,0.594 ± 0.45
6,GCRGHFMYRTW,inactive
7,GCRHYYWMMCNLVTFMKRES,7.237 ± 0.028
8,GCRRETEDVSGRLCCVVWSL,0.206 ± 0.5
9,GCSWEITDVHGGRLKLAMDP,1.12 ± 0.32
10,GCYISLHMCLE,3.84 ± 0.049
11,GDCNGSLLKWWR,0.395 ± 0.55
12,GDHRFMSVVYVFYQSLNGVV,3.41 ± 0.049
13,GDPDQVYSFR,0.034 ± 1.1
14,GDQIWNYGSLAETVTASTWS,0.509 ± 0.21
15,GDSGFKLI,-0.105 ± 0.39
16,GDSVLLYKWYMLGCWPIGSC,4.31 ± 0.056
17,GDTAWFKVDQLPRLPNTRLQ,0.998 ± 0.74
18,GDTIVSSGKVSCQRHASFLI,0.959 ± 0.74
19,GDWSYGMGFNMVAMRNWEYL,-0.512 ± 0.63
20,GEAMSMTEQMTLTRYNYFMY,inactive
21,GEIAPGWEQLWDNEWGSDWA,-0.051 ± 0.39
22,GFNSNGTFHFSQSVT,-0.001 ± 0.65
23,GFPLLHTGILVSNLYMLRAR,-0.536 ± 1.1
24,GFPRKSTDDLNILLNL,-1.47 ± 0.78
25,GFSLVW,-0.413 ± 0.41

row,Substance,amyloid nucleation score
1,GFSRRGELHVSVYHIRDTFG,4.88 ± 0.081
2,GFWFLGCPLYYLVAIFKWII,inactive
3,GGELP,-0.719 ± 0.79
4,GGGGCSSDFTQKTPPGQAKA,-0.102 ± 0.36
5,GGMPVFISVTVLYEWNDFLF,6.671 ± 0.032
6,GGNIGVSYLRWCARINCWWK,5.49 ± 0.062
7,GGQLGGPWPANSLYNVTAVT,-0.075 ± 0.31
8,GGSMSGFLSCGMI,-1.02 ± 0.22
9,GGTDMATFNVPKNEVRDRRG,1.4 ± 0.25
10,GGWRVSGNTSRSISRPCWRG,0.483 ± 0.27
11,GHHLISSDFFDYWGHNMFSG,inactive
12,GHVHQNLMRLVNFSKKSTSL,4.95 ± 0.055
13,GHYKFSIVFPVACLIDRFSF,5.13 ± 0.089
14,GICLSNTGRMCFG,0.009 ± 0.39
15,GIFYSRL,-0.089 ± 0.61
16,GIHGIIITRV,3.22 ± 0.14
17,GIHLVFGFMEWRVMSTLKVS,-0.584 ± 0.64
18,GIIDLIYCNAEEHSHWGDFA,-1.17 ± 0.62
19,GIKFCEPCDGGHGDGIWPLT,0.708 ± 0.29
20,GIKRMCMVPPVIKSNAYSLN,2.95 ± 0.062
21,GIMLLSCFDCGGLSTLGHLA,7.56 ± 0.082
22,GIMSNLGQSPRVRSHSRRQQ,0.747 ± 0.51
23,GIMSVGTAKWRDGQPSACRK,0.996 ± 0.37
24,GISSSHPRTNGHRQYLNFGV,-0.627 ± 0.61
25,GITCCSMSRRFCFRGEGTEW,3.81 ± 0.074

row,Substance,amyloid nucleation score
1,GITFPGFI,0.115 ± 0.28
2,GIVFIYMNRPSFVVDDLTAG,7.27 ± 0.078
3,GIWWQHNGFEYDFGNLSC,-0.165 ± 0.35
4,GIYYTT,-0.854 ± 0.28
5,GKCTGRPPMNHSSLL,0.832 ± 0.39
6,GKDCSRVNKHWCQRGRQGMV,0.922 ± 0.58
7,GKIKTVFWSKDLRFVFIMCV,-0.633 ± 0.48
8,GKKTAGDIRCWWRWSLGCSP,0.731 ± 0.57
9,GKLHIRIWQDSVWLGDLRL,3.82 ± 0.063
10,GKLSGTPWTLSGATKRALLY,-0.494 ± 0.64
11,GKQYPFHFI,-0.583 ± 1.1
12,GKRVLRWTNWMAR,1.83 ± 0.29
13,GLGRKYNMRRRLKLVFWRSD,4.23 ± 0.084
14,GLHLHSVAEYVCWGTPLSRL,0.119 ± 0.76
15,GLISDYFSPSCIVYAGVR,inactive
16,GLLEAWEDFLGRMHGVGLVC,4.15 ± 0.051
17,GLLPVGSVGVRVALVVMRVQ,1.35 ± 0.36
18,GLQYQYSGLWVR,0.236 ± 0.44
19,GLRRRMCCRRCWLEGVDFQD,inactive
20,GLRSIGLGVQSFRSYQFSRI,-0.415 ± 0.45
21,GLRTLERSDVSVGVRRYLG,1.33 ± 0.51
22,GLSDQKGTVALRFFYFDFYS,2.73 ± 0.074
23,GLSELMKGLLTN,0.08 ± 0.79
24,GLSMCIWCRSIQMTTLGSRY,0.365 ± 0.36
25,GLSNLR,-0.114 ± 1

row,Substance,amyloid nucleation score
1,GLSWPTNRCRRALMESTSAP,inactive
2,GLTASL,-0.375 ± 0.49
3,GLVRERIDTAHPRSTSYC,0.561 ± 0.62
4,GLWDSRMAFSRTS,3.57 ± 0.078
5,GLWRLYWILFHF,-1.17 ± 0.78
6,GLYANFVPAIRTDGRGWRFW,-0.352 ± 0.48
7,GLYNFLLSGQ,inactive
8,GMIFFHGNSLGVTDDSHK,0.811 ± 0.82
9,GMKSIDVL,-1.21 ± 0.36
10,GMLSTTALNLLNMVICYYSL,5.447 ± 0.035
11,GMPNFSVFVWAF,2.59 ± 0.082
12,GMSYTLYQSWTVDHTVILPP,3.99 ± 0.12
13,GMVFRRWREMYSSFVDRTLR,0.799 ± 0.51
14,GNESDVSTIYKGDIPLLGVL,-1.05 ± 0.55
15,GNFDWAFHYGVFVHLCHKMG,inactive
16,GNGWAMSVTKR,0.571 ± 0.64
17,GNIDGLLQFEYRW,0.552 ± 0.66
18,GNIGYCKRSFSGLQLVGCAR,-0.464 ± 0.78
19,GNRDMGVVNGRYVTAVTS,0.422 ± 0.26
20,GNRLRIKLL,-0.2 ± 0.27
21,GNRVWERTNFELSSDRESGV,0.832 ± 0.27
22,GNVITDGESMMDCKGTMRSC,0.584 ± 0.21
23,GPCSSGSDSTCQMPCLAWPG,0.74 ± 0.51
24,GPIYLWFSFKSRCQSSCHDV,-0.866 ± 0.48
25,GPSDLIFLPGLMAPRS,-0.373 ± 1.1

row,Substance,amyloid nucleation score
1,GQCPIHMCGRNTYMK,0.05 ± 0.32
2,GQELSGNIFIPDHLGLLSCS,0.744 ± 0.8
3,GQYLLSTIIVFGCSMAGFAA,2.52 ± 0.12
4,GRCILGCHPATRTGMLRYFE,-0.087 ± 1
5,GRCTGLLCLALVVIYQ,0.358 ± 0.39
6,GRDFCFEVSHYVVMFAFLRD,0.114 ± 0.63
7,GRFVSVKHYS,inactive
8,GRILNFMSHDWGDHMICGKK,0.65 ± 0.66
9,GRLGSAPQKR,0.686 ± 0.32
10,GRLRDCRDEHNSNPTLRFTS,0.449 ± 0.16
11,GRNFYESNCAMFDRYSCFGS,0.255 ± 1.1
12,GRPAAHAPSHPTRSVLGMS,0.763 ± 0.47
13,GRRDNMVRCKRLCRWRVWTA,0.157 ± 0.55
14,GRRVPGWNQSYL,-0.274 ± 0.76
15,GRRYSRTVEFVTF,0.692 ± 0.29
16,GRYHIDSRKGKSNKSRGNIY,inactive
17,GRYLVSKTCFFYLMGNEVN,-0.307 ± 0.56
18,GRYNLLNKGNSAGVWCGLFS,-0.324 ± 1.1
19,GSCNASVPVQV,0.057 ± 0.76
20,GSESLNV,0.887 ± 0.57
21,GSLDWRMELWWKFFLHHQPL,0.759 ± 0.74
22,GSLMRFDSWLGGTIASS,0.402 ± 0.66
23,GSSKFPDFSISLMYELFDI,-0.91 ± 1.1
24,GSSTSGVCTGVRERAVDCGV,0.007 ± 0.76
25,GSSVIFSALRMYVSLFLYLV,inactive

# From the supplement of paper PMC12042874
